Laboratory results from patent publication US20230382997A1 (published 2023).

T1: MAGE A3 peptide on HLA-A*01:01 (human)
T1 peptide: EVDPIGHLY

T2: CT 83 peptide on HLA-A*02:01 (human)
T2 peptide: LLASSILCA

T3: MAGE B2 peptide on HLA-A*02:01 (human)
T3 peptide: GVYDGEEHSV

T4: CT 83 peptide on HLA-B*44:02 (human)
T4 peptide: GEMSSNSTAL


Biological target: T1, MAGE A3 peptide on HLA-A*01:01
Test: multimer staining

Binder | binding result
TCR4 (TCR, V domains shown) Valpha: AQSVAQPEDQVNVAEGNPLTVKCTYSVSGNPYLFWYVQYPNRGLQFLLKYITGDNLVKGSYGFEAEFNKSQTSFHLKKPSALVSDSALYFCAVRDAMGGSYIPTFGRGTSLIVHP Vbeta: DGGITQSPKYLFRKEGQNVTLSCEQNLNHDAMYWYRQDPGQGLRLIYYSQIVNDFQKGDIAEGYSVSREKKESFPLTVTSAQKNPTAFYLCASSTGISEQFFGPGTRLTVL | recognises
TCR54 (TCR, V domains shown) Valpha: EDQVTQSPEALRLQEGESSSLNCSYTVSGLRGLFWYRQDPGKGPEFLFTLYSAGEEKEKERLKATLTKKESFLHITAPKPEDSATYLCAVYNQAGTALIFGKGTTLSVSS Vbeta: EAQVTQNPRYLITVTGKKLTVTCSQNMNHEYMSWYRQDPGLGLRQIYYSMNVEVTDKGDVPEGYKVSRKEKRNFPLILESPSPNQTSLYFCASSLYSTDTQYFGPGTRLTVL | recognises
TCR346 (TCR) alpha TRAV29DV5 TRAJ48 CDR3: CAARDISNFGNEKLTF Vbeta: GAVVSQHPSRVICKSGTSVKIECRSLDFQATTMFWYRQFPKQSLMLMATSNEGSKATYEQGVEKDKFLINHASLTLSTLTVTSAHPEDSSFYICSARDHTSGTYEQYFGPGTRLTVT | recognises
TCR2 (TCR, V domains shown) Valpha: ILNVEQSPQSLHVQEGDSTNFTCSFPSSNFYALHWYRWETAKSPEALFVMTLNGDEKKKGRISATLNTKEGYSYLYIKGSQPEDSATYLCAFSNARLMFGDGTQLVVKP Vbeta: DTAVSQTPKYLVTQMGNDKSIKCEQNLGHDTMYWYKQDSKKFLKIMFSYNNKELIINETVPNRFSPKSPDKAHLNLHINSLELGDSAVYFCASSQEAGTGSYNEQFFGPGTRLTVL | recognises

Biological target: T2, CT 83 peptide on HLA-A*02:01
Test: multimer staining

Binder | binding result
TCR18 (TCR, V domains shown) Valpha: AQTVTQSQPEMSVQEAETVTLSCTYDTSESDYYLFWYKQPPSRQMILVIRQEAYKQQNATENRFSVNFQKAAKSFSLKISDSQLGDAAMYFCAYRDNFNKFYFGSGTKLNVKP Vbeta: DSGVTQTPKHLITATGQRVTLRCSPRSGDLSVYWYQQSLDQGLQFLIQYYNGEERAKGNILERFSAQQFPDLHSELNLSSLELGDSALYFCASSGTGGAYNEQFFGPGTRLTVL | recognises
TCR23 (TCR, V domains shown) Valpha: LAKTTQPISMDSYEGQEVNITCSHNNIATNDYITWYQQFPSQGPRFIIQGYKTKVTNEVASLFIPADRKSSTLSLPRVSLSDTAVYYCLVGDIPSVDGGFKTIFGAGTRLFVKA Vbeta: EAQVTQNPRYLITVTGKKLTVTCSQNMNHEYMSWYRQDPGLGLRQIYYSMNVEVTDKGDVPEGYKVSRKEKRNFPLILESPSPNQTSLYFCASSTSLELDQPQHFGDGTRLSIL | recognises
TCR19 (TCR, V domains shown) Valpha: AQKVTQAQTEISVVEKEDVTLDCVYETRDTTYYLFWYKQPPSGELVFLIRRNSFDEQNEISGRYSWNFQKSTSSFNFTITASQVVDSAVYFCALLSSGGYNKLIFGAGTRLAVHP Vbeta: NAGVTQTPKFQVLKTGQSMTLQCAQDMNHEYMSWYRQDPGMGLRLIHYSVGAGITDQGEVPNGYNVSRSTTEDFPLRLLSAAPSQTSVYFCASSYLSPAAGFSYEQYFGPGTRLTVT | recognises
TCR22 (TCR, V domains shown) Valpha: AQSVAQPEDQVNVAEGNPLTVKCTYSVSGNPYLFWYVQYPNRGLQFLLKYITGDNLVKGSYGFEAEFNKSQTSFHLKKPSALVSDSALYFCAVRDDNAGNMLTFGGGTRLMVKP Vbeta: DTGVSQNPRHKITKRGQNVTFRCDPISEHNRLYWYRQTLGQGPEFLTYFQNEAQLEKSRLLSDRFSAERPKGSFSTLEIQRTEQGDSAMYLCASSLANTGELFFGEGSRLTVL | recognises

Biological target: T3, MAGE B2 peptide on HLA-A*02:01
Test: multimer staining

Binder | binding result
TCR28 (TCR, V domains shown) Valpha: AQKITQTQPGMFVQEKEAVTLDCTYDTSDQSYGLFWYKQPSSGEMIFLIYQGSYDEQNATEGRYSLNFQKARKSANLVISASQLGDSAMYFCAMRGDPQGAQKLVFGQGTRLTINP Vbeta: ETGVTQTPRHLVMGMTNKKSLKCEQHLGHNAMYWYKQSAKKPLELMFVYSLEERVENNSVPSRFSPECPNSSHLFLHLHTLQPEDSALYLCASSQGRGKNIQYFGAGTRLSVL | recognises
TCR26 (TCR, V domains shown) Valpha: GENVEQHPSTLSVQEGDSAVIKCTYSDSASNYFPWYKQELGKRPQLIIDIRSNVGEKKDQRIAVTLNKTAKHFSLHITETQPEDSAVYFCAASSLREGYSTLTFGKGTMLLVSP Vbeta: NAGVTQTPKFRVLKTGQSMTLLCAQDMNHEYMYWYRQDPGMGLRLIHYSVGEGTTAKGEVPDGYNVSRLKKQNFLLGLESAAPSQTSVYFCASSSTDLNEQFFGPGTRLTVL | recognises

Biological target: T4, CT 83 peptide on HLA-B*44:02
Test: multimer staining

Binder | binding result
TCR33 (TCR, V domains shown) Valpha: AQSVTQLGSHVSVSEGALVLLRCNYSSSVPPYLFWYVQYPNQGLQLLLKYTSAATLVKGINGFEAEFKKSETSFHLTKPSAHMSDAAEYFCAVSDSSYKLIFGSGTRLLVRP Vbeta: DAGVIQSPRHEVTEMGQEVTLRCKPISGHDYLFWYRQTMMRGLELLIYFNNNVPIDDSGMPEDRFSAKMPNASFSTLKIQPSEPRDSAVYFCASQSGDTQYFGPGTRLTVL | recognises
TCR30 (TCR, V domains shown) Valpha: EDKVVQSPLSLVVHEGDTVTLNCSYEVTNFRSLLWYKQEKKAPTFLFMLTSSGIEKKSGRLSSILDKKELFSILNITATQTGDSAVYLCAVVPDNTDKLIFGTGTRLQVFP Vbeta: GAGVSQSPRYKVTKRGQDVALRCDPISGHVSLYWYRQALGQGPEFLTYFNYEAQQDKSGLPNDRFSAERPEGSISTLTIQRTEQRDSAMYRCASSWGGSNTGELFFGEGSRLTVL | recognises
TCR29 (TCR, V domains shown) Valpha: AQKVTQAQTEISVVEKEDVTLDCVYETRDTTYYLFWYKQPPSGELVFLIRRNSFDEQNEISGRYSWNFQKSTSSFNFTITASQVVDSAVYFCALSEAWGNAGNMLTFGGGTRLMVKP Vbeta: GAGVSQSPRYKVTKRGQDVALRCDPISGHVSLYWYRQALGQGPEFLTYFNYEAQQDKSGLPNDRFSAERPEGSISTLTIQRTEQRDSAMYRCASSPGQQNTEAFFGQGTRLTVV | recognises
TCR32 (TCR, V domains shown) Valpha: ILNVEQSPQSLHVQEGDSTNFTCSFPSSNFYALHWYRWETAKSPEALFVMTLNGDEKKKGRISATLNTKEGYSYLYIKGSQPEDSATYLCAFIVHQAGTALIFGKGTTLSVSS Vbeta: GAGVSQSPRYKVTKRGQDVALRCDPISGHVSLYWYRQALGQGPEFLTYFNYEAQQDKSGLPNDRFSAERPEGSISTLTIQRTEQRDSAMYRCASSLGLLYNEQFFGPGTRLTVL | recognises
